# Target: CGRP antigen
# Experiment: cell-based or functional assay
Binder,IC50,relative activity (%) vs Ref(TEVA)
"hu37 (antibody, V domains shown, 1F5 HC-1/3E5 LC-1) VH: QVQLVQSGAEVKKPGASVKVSCKASGYTFIDFNMHWVRQAPGQRLEWMGYIYPYNGDVVYNQNFTNRVTLTVDTSSSTAYMELSSLRSEDTAVYYCAREGLGGYWGQGTLVTVSS VL: DIVLTQSPDSLAVSLGERATINCKASQNIDYDGYTYLNWYQQKPGQPPKVLIYSIFNLESGVPDRFSGSGSGTDFTLTISSLQAEDVAVYYCQQSNEVPYTFGQGTKLEIK",0.0784 µg/mL,46%
"hu50 (antibody, V domains shown, 1F5 HC-2/3E5 LC-1) VH: QVQLVQSGAEVKKPGASVKVSCKASGYTFTDFNMHWVRQAPGQRLEWMGYIYPYNGDVVYNQNFTNRVTLTVDTSSSTAYMELSSLRSEDTAVYYCAREGLGGYWGQGTLVTVSS VL: DIVLTQSPDSLAVSLGERATINCKASQNIDYDGYTYLNWYQQKPGQPPKVLIYSIFNLESGVPDRFSGSGSGTDFTLTISSLQAEDVAVYYCQQSNEVPYTFGQGTKLEIK",0.0668 µg/mL,46%

# Target: T1, Biotin-huCGRPaSA (human, not fully specified; biotin (position not given))
# T1 construct: exact construct ('aSA') not explained; also called Biotin CGRPaSA; full-length (1-37) CGRP
# T1 peptide: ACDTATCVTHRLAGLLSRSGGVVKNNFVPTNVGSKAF
# Experiment: ELISA, supernatant; relative to chimeric C245
# How it was run: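 Antibodies, including reference chimeric C245, titrated 2.5-fold from 1000 ng/mL and incubated 60 min at 37°C on wells coated with 1.0 μg/mL biotin-CGRPaSA and blocked with 2% BSA. Bound IgG detected with HRP anti-human Fc antibody and TMB, acid-stopped, absorbance 450/620 nm.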
row,Binder,"Relative binding activity, %"
1,"hu37 (antibody, V domains shown, 1F5 HC-1/3E5 LC-1) VH: QVQLVQSGAEVKKPGASVKVSCKASGYTFIDFNMHWVRQAPGQRLEWMGYIYPYNGDVVYNQNFTNRVTLTVDTSSSTAYMELSSLRSEDTAVYYCAREGLGGYWGQGTLVTVSS VL: DIVLTQSPDSLAVSLGERATINCKASQNIDYDGYTYLNWYQQKPGQPPKVLIYSIFNLESGVPDRFSGSGSGTDFTLTISSLQAEDVAVYYCQQSNEVPYTFGQGTKLEIK",142%
2,"hu181 (antibody, V domains shown, 3E5 HC-3/3H10 LC2-1) VH: QVQLVQSGAEVKKPGASVKVSCKASGYTFTDYNMHWVRQAPGQGLEWMGYISPYNGGTAYNQKFKFRVTLTVDTSSSTAYMELSRLRSDDTVVYYCAREGLGGYWGQGTLVTVSS VL: DIVLTQSPDSLAVSLGERATINCKASQNIDYGGYSYMNWYQQKPGQPPKVLIYSVFNLESGVPDRFSGSGSGTDFTLTISSLQAEDVAVYYCQQSNEAPYTFGQGTKLEIK",67%
3,"hu156 (antibody, V domains shown, 3E5 HC-1/3H10 LC2-2) VH: QVQLVQSGAEVKKPGASVKVSCKTSGYTFTDYNMHWVRQAPGQRLEWMGYISPYNGGTAYNQKFKFRVTLTVDTSSSTAYMELSSLRSEDTAVYYCAREGLGGYWGQGTLVTVSS VL: DIQLTQSPSSLSASVGDRVTITCKASQNIDYGGYSYMNWYQQKPGKAPKVLIYSVFNLESGVPSRFSGSGSGTDFTLTISSLQPEDFATYYCQQSNEAPYTFGQGTKLEIK",32%
4,"hu164 (antibody, V domains shown, 3E5 HC-2/1F5 LC1-4) VH: QVQLVQSGAEVKKPGASVKVSCKASGYTFTDYNMHWVRQAPGQRLEWMGYISPYNGGTAYNQKFKFRVTLTVDTSSSTAYMELSSLRSEDTAVYYCAREGLGGYWGQGTLVTVSS VL: DIVLTQSPDSLAVSLGERATINCKASQNIDFDGYAYMNWYQHKPGQPPKVLIYSVFNLESGVPDRFSGSGSGTDFTLTISSLQAEDVAVYYCQQSHEVPYTFGQGTKLEIK",56%
5,"hu177 (antibody, V domains shown, 3E5 HC-3/1F5 LC1-4) VH: QVQLVQSGAEVKKPGASVKVSCKASGYTFTDYNMHWVRQAPGQGLEWMGYISPYNGGTAYNQKFKFRVTLTVDTSSSTAYMELSRLRSDDTVVYYCAREGLGGYWGQGTLVTVSS VL: DIVLTQSPDSLAVSLGERATINCKASQNIDFDGYAYMNWYQHKPGQPPKVLIYSVFNLESGVPDRFSGSGSGTDFTLTISSLQAEDVAVYYCQQSHEVPYTFGQGTKLEIK",25%
6,"hu98 (antibody, V domains shown, 2A2 HC-1/1F5 LC1-3) VH: QVQLVQSGAEVKKPGASVKVSCKASGYTFTDYNMHWVRQAPGQRLEWMGYVYPYNGGSAYNQKFKSRVTLTVDTSSSTAYMELSSLRSEDTAVYYCAREGLGGYWGQGTLVTVSS VL: DIVLTQSPASLAVSPGQRATITCKASQNIDFDGYAYMNWYQQKPGQPPKVLIYSVFNLESGVPARFSGSGSGTDFTLTINPVEADDTANYYCQQSHEVPYTFGQGTKLEIK",76%
7,"hu194 (antibody, V domains shown, 3E5 HC-4/3H10 LC2-1) VH: QVQLVQSGAEVKKPGASVKVSCKTSGYTFTDYNMHWVRQAPGQRLEWMGYISPYNAGTAYNQKFKFRVTLTVDTSSSTAYMELSSLRSEDTAVYYCAREGLGGYWGQGTLVTVSS VL: DIVLTQSPDSLAVSLGERATINCKASQNIDYGGYSYMNWYQQKPGQPPKVLIYSVFNLESGVPDRFSGSGSGTDFTLTISSLQAEDVAVYYCQQSNEAPYTFGQGTKLEIK",98%
8,"hu169 (antibody, V domains shown, 3E5 HC-2/3H10 LC2-2) VH: QVQLVQSGAEVKKPGASVKVSCKASGYTFTDYNMHWVRQAPGQRLEWMGYISPYNGGTAYNQKFKFRVTLTVDTSSSTAYMELSSLRSEDTAVYYCAREGLGGYWGQGTLVTVSS VL: DIQLTQSPSSLSASVGDRVTITCKASQNIDYGGYSYMNWYQQKPGKAPKVLIYSVFNLESGVPSRFSGSGSGTDFTLTISSLQPEDFATYYCQQSNEAPYTFGQGTKLEIK",16%
9,"hu150 (antibody, V domains shown, 3E5 HC-1/1F5 LC1-3) VH: QVQLVQSGAEVKKPGASVKVSCKTSGYTFTDYNMHWVRQAPGQRLEWMGYISPYNGGTAYNQKFKFRVTLTVDTSSSTAYMELSSLRSEDTAVYYCAREGLGGYWGQGTLVTVSS VL: DIVLTQSPASLAVSPGQRATITCKASQNIDFDGYAYMNWYQQKPGQPPKVLIYSVFNLESGVPARFSGSGSGTDFTLTINPVEADDTANYYCQQSHEVPYTFGQGTKLEIK",64%
10,"hu168 (antibody, V domains shown, 3E5 HC-2/3H10 LC2-1) VH: QVQLVQSGAEVKKPGASVKVSCKASGYTFTDYNMHWVRQAPGQRLEWMGYISPYNGGTAYNQKFKFRVTLTVDTSSSTAYMELSSLRSEDTAVYYCAREGLGGYWGQGTLVTVSS VL: DIVLTQSPDSLAVSLGERATINCKASQNIDYGGYSYMNWYQQKPGQPPKVLIYSVFNLESGVPDRFSGSGSGTDFTLTISSLQAEDVAVYYCQQSNEAPYTFGQGTKLEIK",68%
11,"hu99 (antibody, V domains shown, 2A2 HC-1/1F5 LC1-4) VH: QVQLVQSGAEVKKPGASVKVSCKASGYTFTDYNMHWVRQAPGQRLEWMGYVYPYNGGSAYNQKFKSRVTLTVDTSSSTAYMELSSLRSEDTAVYYCAREGLGGYWGQGTLVTVSS VL: DIVLTQSPDSLAVSLGERATINCKASQNIDFDGYAYMNWYQHKPGQPPKVLIYSVFNLESGVPDRFSGSGSGTDFTLTISSLQAEDVAVYYCQQSHEVPYTFGQGTKLEIK",74%
12,"hu190 (antibody, V domains shown, 3E5 HC-4/1F5 LC1-4) VH: QVQLVQSGAEVKKPGASVKVSCKTSGYTFTDYNMHWVRQAPGQRLEWMGYISPYNAGTAYNQKFKFRVTLTVDTSSSTAYMELSSLRSEDTAVYYCAREGLGGYWGQGTLVTVSS VL: DIVLTQSPDSLAVSLGERATINCKASQNIDFDGYAYMNWYQHKPGQPPKVLIYSVFNLESGVPDRFSGSGSGTDFTLTISSLQAEDVAVYYCQQSHEVPYTFGQGTKLEIK",34%
13,"hu103 (antibody, V domains shown, 2A2 HC-1/3H10 LC2-1) VH: QVQLVQSGAEVKKPGASVKVSCKASGYTFTDYNMHWVRQAPGQRLEWMGYVYPYNGGSAYNQKFKSRVTLTVDTSSSTAYMELSSLRSEDTAVYYCAREGLGGYWGQGTLVTVSS VL: DIVLTQSPDSLAVSLGERATINCKASQNIDYGGYSYMNWYQQKPGQPPKVLIYSVFNLESGVPDRFSGSGSGTDFTLTISSLQAEDVAVYYCQQSNEAPYTFGQGTKLEIK",88%
14,"hu155 (antibody, V domains shown, 3E5 HC-1/3H10 LC2-1) VH: QVQLVQSGAEVKKPGASVKVSCKTSGYTFTDYNMHWVRQAPGQRLEWMGYISPYNGGTAYNQKFKFRVTLTVDTSSSTAYMELSSLRSEDTAVYYCAREGLGGYWGQGTLVTVSS VL: DIVLTQSPDSLAVSLGERATINCKASQNIDYGGYSYMNWYQQKPGQPPKVLIYSVFNLESGVPDRFSGSGSGTDFTLTISSLQAEDVAVYYCQQSNEAPYTFGQGTKLEIK",74%
15,"hu104 (antibody, V domains shown, 2A2 HC-1/3H10 LC2-2) VH: QVQLVQSGAEVKKPGASVKVSCKASGYTFTDYNMHWVRQAPGQRLEWMGYVYPYNGGSAYNQKFKSRVTLTVDTSSSTAYMELSSLRSEDTAVYYCAREGLGGYWGQGTLVTVSS VL: DIQLTQSPSSLSASVGDRVTITCKASQNIDYGGYSYMNWYQQKPGKAPKVLIYSVFNLESGVPSRFSGSGSGTDFTLTISSLQPEDFATYYCQQSNEAPYTFGQGTKLEIK",45%
16,"hu146 (antibody, V domains shown, 3E5 HC-1/1A2 LC2-3) VH: QVQLVQSGAEVKKPGASVKVSCKTSGYTFTDYNMHWVRQAPGQRLEWMGYISPYNGGTAYNQKFKFRVTLTVDTSSSTAYMELSSLRSEDTAVYYCAREGLGGYWGQGTLVTVSS VL: EIVLTQSPATLSLSPGERATLSCKASQNIDYDGYAYLNWYQQKPGQAPRVLIYSVFNLESGIPARFSGSGSGTDFTLTISSLEPEDFAVYYCQQSNEFPYTFGQGTKLEIK",107%
17,"hu50 (antibody, V domains shown, 1F5 HC-2/3E5 LC-1) VH: QVQLVQSGAEVKKPGASVKVSCKASGYTFTDFNMHWVRQAPGQRLEWMGYIYPYNGDVVYNQNFTNRVTLTVDTSSSTAYMELSSLRSEDTAVYYCAREGLGGYWGQGTLVTVSS VL: DIVLTQSPDSLAVSLGERATINCKASQNIDYDGYTYLNWYQQKPGQPPKVLIYSIFNLESGVPDRFSGSGSGTDFTLTISSLQAEDVAVYYCQQSNEVPYTFGQGTKLEIK",132%
18,"hu182 (antibody, V domains shown, 3E5 HC-3/3H10 LC2-2) VH: QVQLVQSGAEVKKPGASVKVSCKASGYTFTDYNMHWVRQAPGQGLEWMGYISPYNGGTAYNQKFKFRVTLTVDTSSSTAYMELSRLRSDDTVVYYCAREGLGGYWGQGTLVTVSS VL: DIQLTQSPSSLSASVGDRVTITCKASQNIDYGGYSYMNWYQQKPGKAPKVLIYSVFNLESGVPSRFSGSGSGTDFTLTISSLQPEDFATYYCQQSNEAPYTFGQGTKLEIK",31%
19,"hu195 (antibody, V domains shown, 3E5 HC-4/3H10 LC2-2) VH: QVQLVQSGAEVKKPGASVKVSCKTSGYTFTDYNMHWVRQAPGQRLEWMGYISPYNAGTAYNQKFKFRVTLTVDTSSSTAYMELSSLRSEDTAVYYCAREGLGGYWGQGTLVTVSS VL: DIQLTQSPSSLSASVGDRVTITCKASQNIDYGGYSYMNWYQQKPGKAPKVLIYSVFNLESGVPSRFSGSGSGTDFTLTISSLQPEDFATYYCQQSNEAPYTFGQGTKLEIK",23%
20,"hu185 (antibody, V domains shown, 3E5 HC-4/1A2 LC2-3) VH: QVQLVQSGAEVKKPGASVKVSCKTSGYTFTDYNMHWVRQAPGQRLEWMGYISPYNAGTAYNQKFKFRVTLTVDTSSSTAYMELSSLRSEDTAVYYCAREGLGGYWGQGTLVTVSS VL: EIVLTQSPATLSLSPGERATLSCKASQNIDYDGYAYLNWYQQKPGQAPRVLIYSVFNLESGIPARFSGSGSGTDFTLTISSLEPEDFAVYYCQQSNEFPYTFGQGTKLEIK",19%
21,"hu189 (antibody, V domains shown, 3E5 HC-4/1F5 LC1-3) VH: QVQLVQSGAEVKKPGASVKVSCKTSGYTFTDYNMHWVRQAPGQRLEWMGYISPYNAGTAYNQKFKFRVTLTVDTSSSTAYMELSSLRSEDTAVYYCAREGLGGYWGQGTLVTVSS VL: DIVLTQSPASLAVSPGQRATITCKASQNIDFDGYAYMNWYQQKPGQPPKVLIYSVFNLESGVPARFSGSGSGTDFTLTINPVEADDTANYYCQQSHEVPYTFGQGTKLEIK",73%
